In article PMC4882579, “Disclosing the essentiality of ribose-5-phosphate isomerase B in Trypanosomatids” (Scientific Reports, 2016):

Substrate: O=C(CO)[C@H](O)[C@H](O)COP(=O)(O)O
Test: purified protein, by the assay type
Design: Recombinant RPIB isomerase kinetics, R5P to Ru5P (direct) or Ru5P to R5P (reverse)
Description: LiRPIB and LmRPIB recombinant proteins, containing a 6-histidine N-terminal tag, were expressed in Escherichia coli and purified by affinity chromatography under native conditions. Coomassie blue is represented in Fig. 1b, showing that both proteins have the predicted MW for the monomer (LiRPIB ~20.83, LmRPIB ~20.78 kDa). […] Additionally, recombinant LiRPIB was used to immunise rabbits to produce polyclonal anti-LiRPIB antibodies. Those antibodies recognise the recombinant protein and a single band in an extract of L. infantum promastigotes with the expected MW (~18.6 kDa, [web.expasy.org/protparam]) (Fig. 1c). […] The reverse reaction, which generates R5P, seems to be favoured, with both enzymes presenting lower Km values and higher vmax and kcat.

B1: LiRPIB (Leishmania infantum) (protein)
chain: MPKRVALGCDHAAYATHQEIMDMVNASGAASKVMYMGPSSDTSVDYPDYAAQVCEAILKGEADTGILVCGTGIGMSIAANKFRGIRAALCYDHVTAQLSRQHNNAHILCIGVRTSGMEVIRDIIETFLTTEPLAEGRHGNRVDKITVIEEEQMKDEQRWCFSGCGGLKEEGK
Which Km does the source give for B1 here?
Its Km is 2.82 ± 0.30 mM.

What about the Vmax of the same protein?
Its Vmax is 930 µM/min.

And the kcat?
Its kcat is 115 ± 3.86 s⁻¹.

B2: LmRPIB (Leishmania major) (protein)
chain: MSKRVALGCDHAAYAAHREIMDMISASGAVSKVMYMGPSSDTSVDYPDYAAQVCEAILKGEADAGILVCGTGIGMSIAANKFRGIRAALCYDHVTAQLSRQHNNAHILCIGVRTSGMEIIRDIITTFLTTEPLAEGRHSNRVDKITVIEEEQMKDEQRCCFSGCGGRKEEGK
What does the source list for B2?
Km: 3.01 ± 0.54 mM; Vmax: 1040 µM/min; kcat: 128 ± 7.33 s⁻¹
